This series is described as follows: label from the status in PepcDB records.
Consider “IAGPGLGSGVRARVLQSFTVDSSKAGLAPLEVRVLGPRGLVEPVNMVDNGDGTHTVTYTPSQEGPYMVSVKYADEEIPRSPFKVKVLPTYDASKVTASGPGLSSYGVPASLPVDFAIDARDAGEGLLAVQITDQEGKPKRAIVHDNKDGTYAVTYIPDKTGRYMIGVTYGGDDIPLSPYRIRATQTGDASKCLATGPGIASTVKTGEEVGFVVDAKTAGKGKVTCTVLTPDGTEAEADVIENEDGTYDIFYTAAKPGTYVIYVRFGGVDIPNSPFTVMATDGEVTAVEEAPVNACPPGFRPWVTEEAYVPVSDMNGLGFKPFDLVIPFAVRKGEITGEVHMPSGKTATPEIVDNKDGTVTVRYAPTEVGLHEMHIKYMGSHIPESPLQFYVNYPNSGSVSAYGPGLVYGVANKTATFTIVTEDAGEGGLDLAIEGPSKAEISCIDNKDGTCTVTYLPTLPGDYSILVKYNDKHIPGSPFTAKITDDSRRCSQVKLGSAADFLLDISETDLSSLTASIKAPSGRDEPCLLKRLPNNHIGISFIPREVGEHLVSIKKNGNHVANSPVSIMVVQSEIGDARRAKVYGRGLSEGRTFEMSDFIVDTRDAGYGGISLAVEGPSKVDIQTEDLEDGTCKVSYFPTVPGVYIVSTKFADEHVPGSPFTVKISGEGRVKESITRTSRAPSVATVGSICDLNLKIPEINSSDMSAHVTSPSGRVTEAEIVPMGKNSHCVRFVPQEMGVHTVSVKYRGQHVTGSPFQFTVGPLGEGGAHKVRAGGPGLERGEAGVPAEFSIWTREAGAGGLSIAVEGPSKAEITFDDHKNGSCGVSYIAQEPGNYEVSIKFNDEHIPESPYLVPVIAPSDDARRLTVMSLQESGLKVNQPASFAIRLNGAKGKIDAKVHSPSGAVEECHVSELEPDKYAVRFIPHENGVHTIDVKFNGSHVVGSPFKVRVGEPGQAGNPALVSAYGTGLEGGTTGIQSEFFINTTRAGPGTLSVTIEGPSKVKMDCQETPEGYKVMYTPMAPGNYLISVKYGGPNHIVGSPFKAKVTGQRLVSPGSANETSSILVESVTRSSTETCYSAIPKASSDASKVTSKGAGLSKAFVGQKSSFLVDCSKAGSNMLLIGVHGPTTPCEEVSMKHVGNQQYNVTYVVKERGDYVLAVKWGEEHIPGSPFHVTVP”, for which the protein production entry is given as “failed”.

Take “IDGIFIMDAEGHYLDVNPAICSAIGYTRDEFLALDWGVLSRGVDSGWAAASLARIVGGEPLREERTVWTRNGDQLTVELSAHLLPD”: the protein production result is on record as “failed”.

As to “IGGHVGYGVAKSYRGKGYATILLEKALDELKTLNVEVVLMTCNPLNFASQTVMKKCGGYQIESYIKKNGKPVHRYHIPNT”, the protein production result is given as “failed”.

For the sequence “IGPPESWPQALKTAVRIMLTSQQPIWIGWGTELTYLYNDPYKSIIGGKHPWALGRPTSEVWSEIWEDIAPLLAKATSGHEGTYVEAQLLIMERNGFPEETYYTFSYSPIPTDDGSPGGIFCANTDDTQRVITERQLSLLRDLAASAAESRS”, the protein production result was “failed”.

As to “IKERVKMEVIGLEIPLISGNEDYTLAELISTYPLEDKDVIVIAETVVSKIEKNVILKNEITPSNEAMELSKKLGKEPEVVQVILDESNEIVKLGPNFIITETKHGFVCANSGVDESNTSKGIKPLPKNPDKSAEEIRMGIEKITGKKVGVIINDSMGRPFRKGSCGIAIGVSGVCGLWDRKGEKDLFGRELKTTEVGIADELAATASAVMGQSNEGIPLVIIRNAPVPFTNGTGKELIRKKEEDVFR”, the protein production entry was “failed”.

“IKHWVFDMDGTLTIAVHDFAAIREALSIPAEDDILTHLAALPADESAAKHAWLLEHERDLAQGSRPAPGAVELVRELAGRGYRLGILTRNARELAHVTLEAIGLADCFAEADVLGRDEAPPKPHPGGLLKLAEAWDVSPSRMVMVGDYRFDLDCGRAAGTRTVLVNLPDNPWPELTDWHARDCAQLRDLLSA”: the protein production result was “failed”.

For “IKILKNFDEAIIVDAASLDPESLYQRTYAGKMTFGRVSDLGQFIRESEPEPDVRKSKGSMFSQAMKKWVQGNTDEAQEELAWKIAKMIVSDIMQQAQYDQPLEKSTKL”, the protein production entry is “failed”.

As for “IKMAKDYGFCFGVKRAIQIAEKNQNSLIFGSLIHNAKEINRLEKNFNVKIEEDPKKIPKNKSVIIRTHGIPKQDLEYLKNKGVKITDATCPYVIKPQQIVESMSKEGYQIVLFGDINHPEVKGVISYATNQALVVNSLEELQEKKLQRKVALVSQTTKQTPKLLQIASYLVERCTEVRIFNTICNATSYNQKAALDLSKEVDIMIVVGGKTSSNTKQLLSIAKQHCKDSYLVEDENELELAWFKDKKLCGITAGASTPDWIIENVKQKISTI”, the protein production entry is listed as “failed”.

Consider “IKTRGRNLYSYEGKIGKAVDDIKSGQEGYVIVEGEYWRALALEDIKKNEDIVVVKREGMKLMVRKKVSDIETSRV”, for which the protein production result is given as “failed”.

With “ILELIAKGKPASKIYAEIALMYEERHSGLRCSMLELKGGKLLHAGAPSLPKSYCKAVHGLEYGPQVGSCGTSTYTGKRVLVENIATDPKWADLKYVALPYGMRSCWSEPIKSSSGKVLGAFGMYHDYPALPNEQESNDLTSAARLAGIVMEREQNQKRIQ”, the protein production entry is on record as “failed”.

As to “ILGWVEFTRLEPWGIKTPARIDTGANTSSMSARDINVFKRNGKTWVRFTFDFKKGTAERSIEIERPLVRMVKIKQHDGPSQERPVISMEICLADEIREAEFDLIDRRALNYPVLLGRKALAGYVVVDPARAYLTKAVCGHTKKKKKGSEPADPGQQHE”, the protein production entry was “failed”.

For the sequence “ILKEYSKLLSFNAQKYYLVGAEKEDLVQEGILGLLKAIKFYDETKSSFSSFAFLCIRREMISAIRKANTQKHMVLNEALKTNAILEDSAYFDDEGHNINNYKSSESNPEEAYLLKEEIEEFKKFSENNFSKFEKEVLTYLIRGYSYREIATILSKNLKSIDNTIQRIRKKSEEWIK”, the protein production entry is listed as “failed”.

In the case of “ILTTENQGVFTITLNRIDKKNALTNDMYKQLCQYFAYAEQTSSIHCVVIQGNEQCFCAGNDLHDFIQCSADDELAALAFVKVLSEFTKPLVAGVAGVAVGIGTTLLLHCDMVIAANNSKFKLPFTQLGLCPEAGSSLLLTQKVGPNKAFELMVLGQTFNAEQALSYGITNQTCQPDELLALTSDVAQAISNLPVESVMTSRRLIRQANKLALSQVISEESQAFSHLVKSEECKNILAKFFK”, the protein production entry is “failed”.

As for “INDKLLVQTIKKALFGLRYQRAKKDIQEKDTMISVVADNSPAGICLFGDNGIIYANKALETITGYSKSELIGGSLLDIIQSDSKRLSERINLSLDSACNLEKYSEIRIKTKTGKIRYIDLIANSVEFKEGYVCIANMIDV”, the protein production result was “failed”.

With “INKLYAINANLEESELRFRSAFNSAAIGMAIVSLEGMWLKVNQSLCQIVGYSEEELLETNFQSITHPEDLELDLGYVRQLLEGDIRFYHMEKRYIHKNGSVIWILLSASLIRDLDNKPLYFISQIQNID”, the protein production entry is on record as “failed”.

As to “INQQEDSSESCWNCGRKASETCSGCNTARYCGSFCQHKDWEKHHHIC”, the protein production entry is on record as “not failed”.

With “IPGSPFTAKITDDSRRCSQVKLGSAADFLLDISETDLSSLTASIKAPSGRDEPCLLKRLPNNHIGISFIPREVGEHLVSIKKNGNHVANSPVSIMVVQSEIGD”, the protein production result was “not failed”.

Regarding “IPSDGLTIPYGSGPKPIFRAQVGKKVYQSLINQATESVYITTPYLIIDYDLTETIKNAAMRGVDVRIITPYIPDKKFIQLVTRGAYPDLLSAGVRIYEYSPGFIHSKQMLVDEDFAVVGTINLDYRSLVHHYENAVLLYKTPSIREIARDFRNIFADSQEVYPHSIKTSWYQKLVKEIAQLFAPIL”, the protein production entry is reported as “failed”.

On to “IQVFVKNPDGGSYAYAINPNSFILGLKQQIEDQQGLPKKQQQLEFQGQVLQDWLGLGIYGIQDSDTLILSKKKG”, for which the protein production result is “not failed”.

“IRRKINANVYDKVVLYAPTWRGIHGKATLDIEKLKNDLEKLADQDCHIVFRGHHMIEKLVSEQNISGITIVPSEIDTNELLGAIDILITDYSSIAFDFFVMNRPVIYYAYDIEQYNNERGLYFPLNELPGTVCFNDVELLNTLSGYLRNEIYFDASKGIDKFCKNDDGSVCGKVIEWFFF”: the protein production result is “failed”.

“IRSIWENNGFGLMSSKTMTDFDYWISDFEKIGASQKEAEQLIVKAIEIAIDANARNYNYINAILKDWEQRGFKSVEEREA”: the protein production result is “not failed”.

Consider “IRYAIERQRVEEALRHSEERFRVALKNSPIFVFNQDRDLRYTWIYNPIAGWTVEEMLGKQDSEIMSEQDAQCLTAIKYHVLTTGIGTRQVVSIGTPLGTKYYDLTVEPLRNESQDIVGITCACIDISERKLAEAKIREQ”, for which the protein production entry is on record as “not failed”.

For the sequence “ITERKQIEEALQKSGQRLRMTLESTSTNWWERDLITDQADWSEQSDHLLGYTPDSYEKNQDTFYKLVHPDDREHVQAGVNLAIATGEPYQGEFRLVQADGNCIWILGTGHVEYNEAGQPVRMSGLNIN”, the protein production result is reported as “failed”.

Turning to “IYGYVEKATLIDQNLTLSAKLDTGAKSASLHAVNITEIEKKGIPYLRFTVPTKTGDYSFEGEYVGKVKIKVRSSETNPGLLRTTPIKRPVVLLNIKLGDKVRTIKVNLTNRKRFLYPLLLGRDAIIDFNGAVDPALTFTTKSK”, the protein production result is reported as “not failed”.

Take “KAFLEDMKKYAETFLEPWFKAPNKGTFQIVYKSRNNSHVNREEVIRELAGIVCTLNSENKVDLTNPQYTVVVEIIKAVCCLSVVK”: the protein production entry is on record as “not failed”.

For the sequence “KCETKEKGAITAKELYTMMTDKNISLIIMDARRMQDYQDSCILHSLSVPEEAISPGVTASWIEAHLPDDSKDTWKKRGNVEYVVLLDWFSSAKDLQIGTTLRSLKDALFKWESKTVLRNEPLVLEGGYENWLLCYPQYTTNAKV”, the protein production entry is on record as “not failed”.

For the sequence “KDFLAMFSPKCGGCNRPVLENYLSAMDTVWHPECFVCGDCFTSFSTGSFFELDGRPFCELHYHHRRG”, the protein production result is given as “not failed”.

Take “KFAYKVGIGLEVPFANTNIWSFQTGLNFISKGVKGDGVTDAWDVVDVTINQLYLELPLMVGARIHTASNFDLLFKGGPYLAYGVGGKTKIDGVSEKADTFGDDGLKRFDAGLGLGVAFEFGNIVVGVETGTSFTKVASGVSAHNLSALATIGYKF”: the protein production entry is “failed”.

Take “KGDRLGAVVEWQDNTEALRLKAEADARALEESRVAGENARIRSALDNCTTNVMIADNDRRIIYMNHSVTDMLRGAESDLRKALPNFEVRRLIGSTMDEFHKNPAHQRDLLANLRSTYRAEIQVAGRTFSLVANPVFDADGERLGSVVEWKDRTAEVEIEREVSEIVRAASAGE”: the protein production result is “failed”.

On to “KGGVWRNTEDEILKAAVMKYGKNQWSRIASLLHRKSAKQCKARWYEWLDPSIKKTEW”, for which the protein production result is reported as “not failed”.

As for “KGIKKEIHINDKVIYYTHIEKGSSTVCFMFSGSGYNYDKPLFYYATMLMLEHKIDVVHIHYSYDEQVMNKPMEEVTKIMMDDINPVMKEVLKAEQYNDTIFLGKSLGTIPIANDLMKREEFLQSKMILLTPLLTFDTIFDSILHSNHEGFLVMGDKDHQYNADQVDQLHKTNLQIEVVKNANHSVNVGGYETENSIEAIAKIIGKLKEVVRTN”, the protein production entry is on record as “failed”.

With “KIDFISDVSCPWCVIGLRALDQALEALGDEVQAQIHFQPFELNPNMPAEGQDIKEHIAEKYGSTPEQIEAIHETIRERGAELGFTFGKGERRIYNTFDAHRLLHWAEQEGKQPALKQALFVAYFSELKDPSSHQTLADVAQKVGLDRLRAQAILDSDEFASEVREAEQLWTSRGITSVPTMVFNDQYAVSGGQPVEVFVSAIRQMLSES”, the protein production entry was “failed”.

Consider “KIIGYARVSFNAQKDDLERQIQLIKSYAEENGWDIQILKDIGSGLNEKRKNYKKLLKMVMNRKVEKVIIAYPDRLTRFGFETLKEFFKSYGTEIVIINKKHKTPQEELVEDLITIVSHFAGKLYGMHSHKYKKLTKTVKEIVREEDAKEKE”, for which the protein production result is listed as “not failed”.
